# Laboratory results: patent US20220403044A1 (ACADEMIA SINICA, published 2022)
# B1: EpCAM-V5 (other, UniProt P16422 24-314, looked up)
# chain: QEECVCENYKLAVNCFVNNNRQCQCTSVGAQNTVICSKLAAKCLVMKAEMNGSKLGRRAKPEGALQNNDGLYDPDCDESGLFKAKQCNGTSMCWCVNTAGVRRTDKDTEITCSERVRTYWIIIELKHKAREKPYDSKSLRTALQKEITTRYQLDPKFITSILYENNVITIDLVQNSSQKTQNDVDIADVAYYFEKDVKGESLFHSKKMDLTVNGEQLDLDPGQTLIYYVDEKAPEFSMQGLKAGVIAVIVVVVIAVVAGIVVLVISRKKRMAKYEKAEIKEMGEMHRELNA
# notes: whole, on cells; also called exogenous EpCAM; not shown: V5 tag
# B2: EGF-like domain II-deleted EpCAM mutant (EpCAMΔEGFII), V5-tagged (other, UniProt P16422 24-314, looked up)
# chain: QEECVCENYKLAVNCFVNNNRQCQCTSVGAQNTVICSKLAAKSERVRTYWIIIELKHKAREKPYDSKSLRTALQKEITTRYQLDPKFITSILYENNVITIDLVQNSSQKTQNDVDIADVAYYFEKDVKGESLFHSKKMDLTVNGEQLDLDPGQTLIYYVDEKAPEFSMQGLKAGVIAVIVVVVIAVVAGIVVLVISRKKRMAKYEKAEIKEMGEMHRELNA
# notes: whole, on cells; also called EGF domain-deleted mutant EpCAM-V5; not shown: V5 tag
# Assays:
# EGFR-Flag [1] = target: T1, EGFR-Flag (UniProt P00533 25-1210, limits assumed); test: co-IP from HEK293T cells overexpressing EpCAM-V5 and EGFR-Flag (FIG. 1C)
# T1 construct: whole, on cells; also called exogenous EGFR; not shown: Flag tag
# Description: (§1) FIGS. 1A to 1H. EpEX binds to EGFR through its EGF-like domain I. (FIG. 1A) Immunoprecipitation (IP) of affinity cross-linked EpEX-Fc bound to EGFR from HCT116 cells. (FIG. 1B) EpEX-Fc was added to EGFRECD-coated ELISA plates and detected by TMB colorimetric peroxidase assay. (FIG. 1C) 293T cells were transfected with EGFR-Flag and EpCAM-V5. IP was performed with anti-V5 antibody (left panel) or anti-Flag antibody (right panel) followed by Western blotting. (FIG. 1D) 293T cells were transfected with EGFR-Flag and EGF domain-deleted mutant EpCAM-V5. The protein interaction was probed by IP with anti-V5 antibody and Western blotting with anti-Flag antibody. (FIG. 1E) In culture media from 293T cells with EGFRECD-Flag and EpEX-Fc transfection, IP was performed with Dynabeads® Protein G and detected by Western blotting with anti-Flag antibody. (FIG. 1F) 293T cells were transiently transfected with EGFRECD-Flag and EGF domain-deleted mutant EpEX-Fc. […] (FIG. 1G) Purified EGFRECD-6×His and EGF domain-deleted mutant EpEX-Fc were incubated and IP was performed with Dynabeads® Protein G and detected by Western blotting. (FIG. 1H) HCT116 cells were starved and treated with wild-type or EGF domain-deleted mutant EpEX, and EGFR signaling was analyzed by Western blotting. […]
# EGFR-Flag [2] = target: T1, EGFR-Flag; test: co-IP with anti-V5, Western blot with anti-Flag, transfected 293T cells (FIG. 1D)
# Description: as §1
Binder,binding result (EGFR-Flag [1]),binding result (EGFR-Flag [2])
B1,binds,–
B2,–,binds
